# Assay results as given in the RNAGym collection of RNA variant scans (doi:10.1021/acssynbio.7b00057).
# B1: Pistol ribozyme (parent)
# chain: GGGUCGUUGUUCCAUAAUCGCGUGGAUAUGGCACGCAAGUUUCUACCGGGCACCGUAAAUGUCCGACUGGAGCCGUUCGGGCGGCUAUAAACAGACCUCAGGCCCGAAGCGUGGCGGCACCUGCCGCCGGUGGUAAAAAAGAUCGGAAGAGCACACGUCU
# Variants of: B1
# Assay: aptazyme ON/OFF ratio, guanine; higher = stronger switching; co-transcriptional cleavage with and without guanine
row,Variant,aptazyme ON/OFF ratio
1,U10G C12A C13G,1.06
2,U7A G9U U10G U11C C12A C13A,1.14
3,U7A G9U U10G U11C C12A C13U,1.24
4,U7G U8A G9C U11C C12U C13U,1.03
5,U7A U8A G9A U10G U11G C12G C13U,1.44
6,U7A G9A C12U C13U,1.21
7,U7C U8G C12U C13A,1.22
8,U8G U10C U11A C13U,1.22
9,U7A U8G G9U U10A C13G,1.12
10,U8A G9C U11A C12A C13A,1.22
11,U7G U8C G9A U10G U11C C12A,1.3
12,U7A G9C U10G U11G C13G,1.17
13,U7G U8A G9U U10C U11A C12A C13G,1.06
14,U7A U8G U10A C12G C13G,1.26
15,U7G U8C G9U U10A U11C C12G C13G,1.05
16,U7G U8A G9C U10C U11G C13A,1.04
17,U7G U8G G9U C13G,1.26
18,U7A G9U U10A U11G C13U,1.21
19,U7A U8G G9U C12G C13U,1.33
20,U7C U11G C12G C13G,1.27
21,U7G G9A U11G C13G,1.1
22,U7G U8A U10C U11G C12A,1.27
23,U8C U10A U11G C12G C13G,1.39
24,U7G G9U U11G C12U C13G,1.37

row,Variant,aptazyme ON/OFF ratio
1,U7A U8A U10A U11G C12A C13U,1.18
2,U8A G9A U10A C12G C13U,1.42
3,U8A G9C U10A C12G C13A,1.19
4,U7A U8A G9U C12A C13G,1.25
5,U7G U8C C12A C13U,1.08
6,U7C U8C G9C U10G U11G C12A C13G,1.07
7,U7A U8C G9A U10G C12G C13G,1.2
8,U7G U8C U10A C12A C13A,1.24
9,U7C U8A G9U U10G U11A C12G C13G,1.22
10,U8G G9A U10C U11A C12G C13U,1.15
11,U7C U8A U10G U11A,1.06
12,U7C U10C U11G C12U,1.18
13,U7A U11C C12G C13A,1.3
14,U7C U8C G9A U10C U11G C12U C13U,1.23
15,U7C U8G G9U U10C U11G C12A C13G,1.13
16,U7C U10A,1.12
17,U7C U8G U10A C12U,2.01
18,U10C U11G C12U,1.31
19,U8A G9C U11G C12A C13A,1.1
20,U8G G9A U10C U11A C13U,1.08
21,U7A G9U U10C U11C C13G,1.04
22,U8C G9U U11C C12A C13U,1.18
23,U7C U8A U10A U11C C12G,1.13
24,U7G U8G G9A U10C U11G C12U C13A,1.27

row,Variant,aptazyme ON/OFF ratio
1,U7G G9C U10C U11G C12U C13G,1.26
2,U8G U11C C13A,1.19
3,U8G U11C C13G,1.17
4,U7A U10G U11A C12A C13A,1.17
5,U8A G9C C12A C13G,1.17
6,U7A U8A G9C U10C C12U C13G,1.1
7,U7C U8A G9C U10G U11A C13G,1.11
8,U8A G9C U10A U11G C13U,1.18
9,U7A U8C G9U U10G U11C C12U,1.12
10,U8C U10C U11C C13A,1.08
11,U7C U8G G9C U10G U11G C12U C13U,1.11
12,U7C U8G G9C U10G U11G C12U C13G,1.09
13,U7A G9C U11A C12A,1.07
14,U8A G9A U10G U11G C12A C13U,1.3
15,U7G U8C G9A U10C U11G C12U C13G,1.22
16,U7G U8C G9A U10C U11G C12U C13A,1.26
17,U8A G9A U10C C12U C13A,1.17
18,C12G C13G,1.33
19,U7G U8A U10A C13G,1.44
20,U7C U8C G9A U10C U11A C12A C13G,1.4
21,U7G U8G G9U U10G C12G C13G,1.15
22,U8G G9A U10C C12U,1.14
23,U8C G9A U10A U11G C12U C13U,1.23
24,U7C U8A G9C U10C C12G C13G,1.07

row,Variant,aptazyme ON/OFF ratio
1,U8G G9U C12G,1.64
2,U7G U10A U11A C12A C13A,1.14
3,U7C G9U C12U C13U,1.12
4,U7G U8G G9A U10A U11G C12G C13A,1.14
5,U7C U8G G9C U10A U11C C12A C13G,1.11
6,U7C U8C U10A U11C C12A,1.29
7,U7G U8C G9C U11C C12A C13U,1.53
8,U7G U8G G9C U11G C12U,1.31
9,U7A U8C G9U U10C U11C C12A C13U,1.06
10,U7C U8G G9A U10C C12U C13U,1.1
11,U7A G9U U11G C13A,1.15
12,U7C G9U U10A U11A C12G C13G,1.19
13,U10A C12G C13G,1.17
14,U7G G9C U10G U11G C12U C13U,1.24
15,U7C U8C G9C U10A U11G C13G,1.14
16,U8C G9A U10G U11G C13A,1.15
17,U7C U8G G9C U10C U11G C12U,1.17
18,U7G U8G G9A U10C U11C C12G C13A,1.16
19,U7C U8G G9C U10C C12U C13G,1.08
20,U7A U8C G9C U10A U11G C12A C13G,1.12
21,U7C U8A G9C U10G U11C C12G C13A,1.25
22,U8A G9C U10C U11A C13G,1.07
23,U7C U8C U11G C12G C13A,1.1
24,U7C U8C G9C U10A C12G C13A,1.11

row,Variant,aptazyme ON/OFF ratio
1,U7G G9U U11A C12G C13U,1.36
2,U7G U8C G9A U10A C12U C13U,1.05
3,U7G U8A G9A U11A C13A,1.06
4,G9A U10C U11C C12A,1.1
5,U7G U8A U10A C12G C13G,1.22
6,U7A U8G G9U U10A C12G C13G,1.47
7,U7C U8A G9C U10C C12U C13G,1.06
8,U7G U8C U10G U11A C12U,1.22
9,U7C G9U U10A U11G C12G C13U,1.16
10,U7C U8A G9U U10G U11C C12U C13U,1.22
11,U7A U8C G9U U10G C12A C13A,1.45
12,U7G U8C U11G C12U C13A,1.14
13,U7G G9U U10A U11A C12U C13G,1.29
14,U7A U8G G9C U11A C12A,1.73
15,U7A U8A U11G C12U C13A,1.2
16,U7A U8A G9C U10C U11G C13U,1.05
17,U8C G9A U11A C12G C13G,1.2
18,U7G U8G U10C C12U C13G,1.42
19,U8A G9U U11A C13U,1.24
20,U7C U8A G9A U10G U11G C12A C13A,1.19
21,U7C G9A U10A C13U,1.34
22,U8C U10A U11A C12G C13A,1.15
23,U8C G9C U10A C12U,1.13
24,U7C U8G G9C U10A U11A C12A C13G,1.15

row,Variant,aptazyme ON/OFF ratio
1,U7A G9U U10A U11G C12G C13G,1.2
2,U7A U8A G9C U10A U11G C12U C13A,1.17
3,U7A U8A G9A U10A U11G C12U,1.19
4,U7A U8G G9A C12A C13U,1.35
5,U7A U8G G9U U10C U11A C12G C13U,1.37
6,U7G U8C G9A U10G U11A C13G,1.04
7,U7A U8C U11C C12G C13G,1.22
8,U7G G9U U10G U11G C12G C13U,1.27
9,U7C G9U U10C C12U C13A,1.08
10,U7G U8C U10C U11G C13U,1.38
11,U7A U8C G9A U11A C12A C13G,1.09
12,G9U U10G U11A C12G C13A,1.18
13,U8C G9A U10C U11C C12A C13G,1.12
14,U7G U8G U10C U11G C12A C13A,1.15
15,U8G G9C U10G U11A C12G,1.15
16,U7G U8A G9U U10C U11C C12U C13U,1.06
17,U7G U8C G9C U11C C12U C13U,1.34
18,U7G U8A U10C C13U,1.49
19,U7C G9U U10G U11G C12G C13U,1.08
20,U7C U8A G9A U10G U11A C12G C13U,1.24
21,U7C U8A G9C U10C U11A C12G,1.03
22,U7A U8A G9A U10A U11C C12A C13A,1.2
23,G9C U11A C13U,1.3
24,U7C U8G U10C U11A C12U,3.58

row,Variant,aptazyme ON/OFF ratio
1,U7G U8A G9C U10G U11C C13G,1.06
2,U7G U8C C12G C13A,1.08
3,U7G G9A U10C U11A C12U C13A,1.11
4,U7G U8C G9C C13A,1.11
5,U7G U8C G9U U10G U11G C12U C13U,1.44
6,U8A G9C U10G U11G C12G C13A,1.14
7,U7A G9A U11G,1.67
8,U7G U8G G9A C12G C13G,1.14
9,U7A U8A G9A C12A C13G,1.06
10,U8C G9U U10A C12U,1.56
11,G9A U10G U11A C12G C13G,1.45
12,U8C G9U U11G C12U C13A,1.16
13,G9A U10A U11A C12U C13U,1.57
14,U7C U8A G9A U10G U11C C12G C13G,1.21
15,U7G U8G G9A U10A U11G C13G,1.16
16,U7A U8A G9U U10G U11G C12G,1.41
17,U7A U8C G9A U10A U11A C12U C13A,1.13
18,U7C U8A G9U U10C C12G C13U,1.22
19,U7A U8A U10G U11A C12G C13U,1.51
20,U7C G9A U11G C12G,1.37
21,U8A G9U U10A U11G C12G C13U,1.31
22,U7C G9A C12G,1.14
23,U7C U8C G9U U10A U11G C12A C13A,1.19
